Source: publication PMC8810938 (Clinical & Translational Immunology, 2022)

Key:
[1] = molecular target: T1, CXCR3A‐transfected CHO cells (human CXCR3A) (Homo sapiens, UniProt P49682); details: CXCR3‐transfected CHO cells; n = 4; cited from earlier work
T1 sequence (P49682 1-368): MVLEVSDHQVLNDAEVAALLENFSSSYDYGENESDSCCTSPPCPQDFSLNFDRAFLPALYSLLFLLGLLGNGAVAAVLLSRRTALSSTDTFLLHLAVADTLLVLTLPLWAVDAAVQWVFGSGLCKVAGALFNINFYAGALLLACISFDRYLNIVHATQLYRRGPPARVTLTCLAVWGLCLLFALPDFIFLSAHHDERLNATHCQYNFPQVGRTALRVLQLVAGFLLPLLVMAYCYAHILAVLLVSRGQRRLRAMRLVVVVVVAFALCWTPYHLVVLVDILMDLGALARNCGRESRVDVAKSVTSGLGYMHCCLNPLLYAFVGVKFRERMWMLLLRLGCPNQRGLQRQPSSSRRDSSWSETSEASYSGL

[2] = tested on: TGF‐β1‐stimulated human fibroblasts; experiment: Induction assay: fibrotic marker mRNA; assay type: cell-based; details: primary human fibroblasts, TGF‐β1 5 ng mL^−1, 48 h, only at the highest test concentration 100 nM; qPCR; n = 4

For “CXCL9(1–103): authentic full‐length human CXCL9 chemokine of 103 amino acids (Peprotech)”, the calcium response [1] is listed as 598.1 ± 22.9 nM and the “collagen III mRNA expression” value [2] is listed as “significant reduction”.
